Results published in paper PMC5615036, “Crystal structure of an ASCH protein from Zymomonas mobilis and its ribonuclease activity specific for single-stranded RNA”.

Molecular target: T1, ZmASCH wild-type (Zymomonas mobilis ZM4, UniProt Q5NP14 1-148)
T1 sequence: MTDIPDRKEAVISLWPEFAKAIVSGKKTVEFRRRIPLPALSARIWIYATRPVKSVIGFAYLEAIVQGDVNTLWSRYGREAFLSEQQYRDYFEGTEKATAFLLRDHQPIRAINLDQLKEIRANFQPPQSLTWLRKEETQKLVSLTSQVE
Test: EMSA; 10 mM Mg2+; bound, not degraded; EMSA: 20 mM Tris-HCl pH 7.5, 10 mM Mg acetate, 300 mM KCl, 100 ng/uL BSA, 100 ng/uL heparin, 30 min at 310 K; nuclease assay: 20 mM Tris-HCl pH 8.0, 100 mM KCl, 100 ng/uL BSA, with or without 10 mM divalent metal, 310 K
Details: protein: recombinant; tags: N-terminal His6; label: 5'-32P; single strand

## ATCAGCTCGTCACAACATTACTTCATCAAC (ssDNA) [ssDNA(30mer)]
  binding result: binds
